From the nanobody polyreactivity screen of Harvey et al. (2022)

Test: yeast display, Sf9 membrane polyspecificity reagent, FACS + sequencing; frameworks hold sequencing errors
Method in brief: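 Sorting gates, low and high (top ~1%), were placed on anti-HA fluorescence to track expression and on streptavidin fluorescence to track reagent binding. A clone's polyreactivity label is taken from the gate it came out of. The reagent was 10% biotinylated, detergent-solubilized Sf9 membrane, applied for 1 hour at 4 °C to galactose-induced yeast display cells.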

Sequence | polyreactivity (PSR sort gate)
QVQLVESGGGLVQAGGSLRLSCAASGRIYDYNTMGWYRKAPGKERELVAAITGGTGSTYYADSVKGRFTISRDNAKNTVYLQMNSLKPEDTAVYYCAAGFHKRVTPEILYDYWGQGTQVTVSS | low polyreactivity
QVQLVESGGGLVQAGGSLRLSCAASGSILGWYAMGWYRQAPGKERQLVAAISYSGTSTYYADSVKGRFTISRDNAKNPVYLQMNSLNPEDTAVYYCNAFFSSRYYRVGSGYDYWGQGTQVTVSS | high polyreactivity
QVQLVESRGGLVQAGGSIRLSCAASGITFGSYAMGWYRQAPGKERELVAAIDTSGDDTYYADSVKGRFTISRDNAKNTVYLQMNSLNPEDTAVYYCNAVSTASDEYDYWGQGTQVTVSS | low polyreactivity
QVQLVESGGGLVQAGGSLRLSCAASGSIFARYAMGWYRQAPGKERELVAAITRSGVSTYYADSVKGRFTISRDNAKNTVYLQMNSLKPEDTAVYNCNAYYPIRSTPYGYYYWGQGTQVTVSS | high polyreactivity
QVQLVESGGGLVQAGGSLRLSCAASGSIFKQNTMGWYRQAPGKEREFVAAISSGGSTYYADSVKGRFTISRDNAKNTVYLQMNSLKPEDTAVYYCAKYYDWDYYLPLEGDYWGQGTQVTVSS | low polyreactivity
QVQLVESGGGLVQAGGSLRLSCAASGNTFTWYTMGWYRQAPGKERELVAVITSDGSTYYADSVKGRFTISRDNAKNTVYLQMNRLKPEDTAVYYCNALSADWYPEEDYWGQGTQVTVSS | low polyreactivity
QVQLVESGGGLVQAGGSLRLISAASGRTFYSYAMGWYRQATGKERELVASISSGGGTNYADSVKGRFTSSRDNAMNTVYLQMNSLKPEDTAVYYGAAKYWFFYPYDYWGQGTQVTVSS | low polyreactivity
QVQLVESGGGLVQAGGSLRLSCAASGRISQIYAMGWYRQAPGTERELVASISSSGSRTYYADSVKGRFTISRDNAKNTVYLQMNSLKPEDTAVYYCAARWWARSNRYDYWGQGTQVTVSS | high polyreactivity
QVQLVESGGGLVQAGGSLRLSCAASGFIIAYYAMGWYRQAPGKERELVAAISRRGGSTYYADSVKGRFTISRDNAKNTVYLQMNSLKPEDTAVYYCAKAHYLSDYNYWGQGTQVTVSS | high polyreactivity
QVQLVESRGGLVQAEGSLRLSCAASGYTFTSNDMGWYRQAPGKERELVAAITWSGGTTYYADSVKGRFTISRDNAKNTVYLQMNSLKPEDTSVYYFAADVSLVYPYSYRYYYWGQGTQVTVSS | low polyreactivity
QDQLVESGGGLVQAGGSLRLSCAASGRTFEGNAMGWYRQAPGKERELVAAITSGGRTNYADSVKGRFTISRDNAKNTVYLQMNSLKPEDTEVYYCANVYRSIGPNVSRYGLSYYYWGQGTQVTVSS | low polyreactivity
QVQLVESGGGLVQAGGSLRLSCAASGRTFTNYAMGWYRQAPGKERELVAAAITVGGGRTYYADSVKGRFTISRDNAKNTVYLQMNSLKPEDTAVYYCATDFGTYWYEYWGQGTQVTVSS | high polyreactivity
QVQLVESGGGLVQAGASLRLSCAASGFIFAINTMGWNLQAPGKETELVAGINWRGSSKYYADSVKGRFTISRDNAKNTVYLQMNSLKPEDTAVYYCAARRFWGSDYDYWGLGTQVTVSS | high polyreactivity
QVQLVDSGGGLVQAGGSLRLSCAASGITFRTYAMGWYRQEPGKERELVAAISGSSTSTYYADSVKGRFTISRDNAKNTVYLQMNSLKPEDTAVYYCAAGYRVSVYRYYYWGQGTQVTVSS | high polyreactivity
QVQLVESGGGLVQAGGSLRLSCAASGRTFVTNAMGWYRQAPGKERELVATINWSGGRTHYADSVKGRFTISRDNAKNTVYLQMNSLKPEDTEVYYCAKASSRRYWTIRDGDYWGQGTQVTVSS | low polyreactivity
QFQLVESGGVLDQAGCSLRLSCAASGYTFYANAMGWYRQAPGKEREFVASIPWSGGSTYYADSVKGRFTISRDNAKNTVYLQMNSLKPEDTAVYYCAAESWFKYDYWGQGTQVTVSS | low polyreactivity
QVQLVDSGGGLVQAGGSLRLSCAASASTFEYYTMGWYRHAPGKERQLVASIRSSGTSTYYADCVKGRFTISRDNAKNTVYLQMNSLKPEDTAVSYWAATVLSIYVSSYGFWGQGTQVTVSS | high polyreactivity
QVQLVESGGGLVQAGGSLRLSCAASGRTFPVNVMGWYRQAPGKERELVAAITWSGDSTYYADSVKGRFTISRDNAKNTVYLQMNSVKPEDTAVYYCATDYSGLRYDYWGQGTQVTVSS | low polyreactivity
QVQLVESGGGLVQAGGSLRLSCAASGFTFRYYAMGWYRQAPGKERELVAAISRSDSRTYADSVKGRFTISRDNAKNTVYLQMTSLNPEDTAVYYCAARIRPLYANVRYGYWGQGTQVTVSS | high polyreactivity
QVQLVESGGGLVQAGGSLRLSCADSGRILIGYTRGWYRQAPGKERELVARINYSGGSTYYADSVKGRFTISRDNAKNTVYLQMNSLKPEDTAVYYCAADVRRGYYTWPPRRVYYWGQGTQVTVSS | high polyreactivity
QVQLVESGGGLVQAGGSLRLSCAASGSTLRRNAMGWYRQAPGKERELVAAISSGGSTYYADSVKGRFTISRDNAKNTVYLQMNSLKPEDTAVYYCNAAVPRGRYTSYYRSGWLDYWGQGTQVTVSS | high polyreactivity
QVQLVESGGGLVQAGGSLRLSCAASGRIFGSYVMGWYRQAPGKERELVAAISFSGDTTYYADSVKGRFTISRDNAKNTVYLQMNSLKPEDTAVYYCAAEFPQGYYAFKYDYWGQGTQVTVSS | high polyreactivity

Sequence | polyreactivity (PSR sort gate)
QVQLVESGGGLVQAGGSLRLSCAASGFTFSDNAMGWYRQAPGKERELVAAISRSGGRTYYADSVKGRFTISRDNAKNTVYLQMNSLKPEDTAVYYCAAYQYGMDYWGQGTQVTVSS | high polyreactivity
QVQLVESGGGLVQAGGSLRLSCAASGRIFTVNTMGWYREAPGKERELVASIRGGGSTNYADSVKGRFTISRDNAKNTVYLQMNSLKPEDTAVYYCAAGTSKPTPIYGYWGQGTQVPVSS | low polyreactivity
QVQLVESGGGLVQAGGSLRLSCAASGRTFVVYTMGWYRQAPGKERELVAAISWRGGTTYYADSVKGRFTISRDNAKNTVYLQMNSLKPEDTAVYYCAARVVYYYRERYYWGQGTQVTVSS | high polyreactivity
QVQLVESGGGLVQSGGSLRLSCAASGSTLSVYVMGWYRQAPGKERELVARIRSGGNTYYADSVKGRFTISRDNAKNTVYLLMNSLKPEDTAVYYCNADPSTGWYKYDYWGQGTQVTVSS | high polyreactivity
QVQLVESGGGLVQAGGSLRLSCAASGSTFYINALGGYRQAPGTERELVAAITWNSDSTYYADSVKGRFTISRDNAKNTVYLQMNSLKPEDTAVYYCNKDRIIWGRLYEEGDYWGQGTQVTVSS | low polyreactivity
QVQLVESGGGLVQAGGSLRLSCAASGSIFPGYAMGWSRQAPGKERELVATISTGGSTYYADSVKGRFTISRDNAKNTVYLQMNSLKPEDTAVYYCNADIRSYLRYSLRRYDDYDYWGQGTQVTVSS | low polyreactivity
QVQLVESGGGLVQAGGSLRLSYAASGSTFRVYAMGWYRPATGKERELVAAISRSGGRTYYADSVKGRFTISRDNAKNTVYLQMNSLKPEDTAVYYCAADYKYTAVSDDYWGQGTQVTVSS | high polyreactivity
QVQLVESGGGLVQAGGSLRVSCAASGRTFRSYAMGWYRQAPGKERELVAAIRRGGSTNYADSVKGRFPISRDNAKYTVYLQMNSLKPEDTAVYYCAARYTRWRYNYKDYDYWGQGTQVTVSS | high polyreactivity
QVQLVESGGGLVQAGGSLRLSCAASGSIFSRYAMGWYRQAPGKERELVAAISWRGVSTYYADSVKGRFTISRDNAKNTVYLQMNSLKPEDTAVYYCAADTGRYLDSNYWGQGTQVTVSS | high polyreactivity
QVQIEESGGGLDQAGGSLRLTCAASGFTIPSYTRGWYRQAPGKERELVAAISRSDGTTYYAYSVKGRFTISRDNAKNSVYLQLNSLKPEDTAVYYCNKAYKRYGYHYDYWGQGTQVTVSS | high polyreactivity
QVQLVESGGGLVQAGGSLRLSCAASGSTLYWNAMGWYRQAPGKERELVAGISIGGRTNYADSVKGRFTISRDNAKNTVYLQMNSLKPEDTAVYYCNAENTYLGSRYRPYNYWGQGTQVTVSS | low polyreactivity
QVQLVESGAGLVQAGGSLRVSCAASGLIFAWYAMGWYRQAPGKERELVATIDVSGGTYYADSVKGRFTISRDNAQNTVYLQMNSLNPEDTAVYYCAAGVTYWYDAPEYYYWGQVTQVTVSS | high polyreactivity
QVQLVESGGGLVQAGGSLRLSCAASGSIFVKYAMGWYRQAPGTERELVAAISWSGDSTYYADSVKGRITISRDNAKNTVYLQMNSLIPEDTAVYFCAAYSGYGGVSMYYWGQGTQVTVSS | low polyreactivity
QVQLQERGGGLVQARGSLRLSCAASGNISYRTNMGWYRPAPGKERELVASIGGGTTNYADSVKGRFTISRDNAKKTVYLQMNSLKPVDTAVYYCAVVGTTQFRHRYWGQGTQVTASS | high polyreactivity
QVQLVESGGRLFQAGGSLRLSCPASGFTFVYNAMGWYRQAPGKERELVATISSGGGRTYYADSVKGRFTISGDNAKNTVSLQKYSQKPEDTAVYYCATVRRTSSGERHEFWGQGTQVTVSS | low polyreactivity
QVQLVESGGGLVQAGGSLRLSCAASGSIFRRNAMGWYRQAPGKERELVAAITWRGDRTYYADSVKGRFTISRDNAKNTVYLQMNSLKPEDTAVYYCNKLGRIQYDYWGQGTQVTVSS | high polyreactivity
EEELVESGVGLVQAGGSLRLSCAASGRTFARNAMGWYRQAPGKERELVAGINFSGGNTYYADSVKGRFTISRDNAKNTVYLQMNSLKPEDTAVYYCAARRYWEGDYWGQGTQVTVSS | low polyreactivity
QVQLEESGGGLVQAGGSLRLSCAASGIIFITYAMGWYRQAPGKEREMVAAITNSGGGTYYADSVKGRFTISRDNAKNTVYLQLNSLKPEDTAVYYCAARKTAYGYRYDYWGQGTQVTVSS | high polyreactivity
QVQLVESGGGLVQAGGILRLSCAASGRTFRIYAMGRYRPAPAKVREFVAGITRSDGSTYYADSVKGRFTISRDNAKNTVSFQMNSLKPVDTEVYYCYVEPYSHYRRTEDYWGQGTEVTVSS | high polyreactivity
QVQLVESGGGLVQAGGSLRLSCAASGFTFYFYAMGWYRQAPGKERELVAAISRGGSTTYADSVKGRFTISRDNAKNTVYLQMNSLIPEDTAVSYCKADIYTWFQIGGYQYDYWGQGTQVTVSS | low polyreactivity
QVQIVESAAGIVQAGGSLRLSCAASGSIFLLYAIGWYRQAPGKEMEFVAAITRGGGSTYYADSVKGRFTISRDNEKNIDYLQINSLIPEDTAVYYWYKGFQYHNGSLVVAYDYWGQGTQVTVSS | low polyreactivity
